T1: B3GNT2 (Homo sapiens, UniProt Q9NY97)
T1 construct: The respective ORFs of candidate genes [CD274 (NM_014143), MCL1 (NM_021960), JUNB (NM_002229), and B3GNT2 (NM_006577)] were synthesized; expressed in transfected cells; host or cells: A375 melanoma cells (lentiviral ORF overexpression)
T1 sequence (Q9NY97 1-397): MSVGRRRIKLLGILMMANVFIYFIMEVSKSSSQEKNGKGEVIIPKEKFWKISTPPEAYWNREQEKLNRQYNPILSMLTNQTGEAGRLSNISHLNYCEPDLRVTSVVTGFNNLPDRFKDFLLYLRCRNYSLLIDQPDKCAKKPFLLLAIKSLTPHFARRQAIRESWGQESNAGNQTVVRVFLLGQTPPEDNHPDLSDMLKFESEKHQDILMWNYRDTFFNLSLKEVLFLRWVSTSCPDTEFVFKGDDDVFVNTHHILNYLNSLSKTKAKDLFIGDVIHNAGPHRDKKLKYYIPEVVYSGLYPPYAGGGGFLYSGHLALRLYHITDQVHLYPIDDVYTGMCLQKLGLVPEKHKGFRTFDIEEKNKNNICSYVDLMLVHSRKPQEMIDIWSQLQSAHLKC

B1: IFI16 (protein)
chain: MGKKYKNIVLLKGLEVINDYHFRMVKSLLSNDLKLNLKMREEYDKIQIADLMEEKFRGDAGLGKLIKIFEDIPTLEDLAETLKKEKLKVKGPALSRKRKKEVDATSPAPSTSSTVKTEGAEATPGAQKRKKSTKEKAGPKGSKVSEEQTQPPSPAGAGMSTAMGRSPSPKTSLSAPPNSSSTENPKTVAKCQVTPRRNVLQKRPVIVKVLSTTKPFEYETPEMEKKIMFHATVATQTQFFHVKVLNTSLKEKFNGKKIIIISDYLEYDSLLEVNEESTVSEAGPNQTFEVPNKIINRAKETLKIDILHKQASGNIVYGVFMLHKKTVNQKTTIYEIQDDRGKMDVVGTGQCHNIPCEEGDKLQLFCFRLRKKNQMSKLISEMHSFIQIKKKTNPRNNDPKSMKLPQEQRQLPYPSEASTTFPESHLRTPQMPPTTPSSSFFTKKSEDTISKMNDFMRMQILKEGSHFPGPFMTSIGPAESHPHTPQMPPSTPSSSFLTTLKPRLKTEPEEVSIEDSAQSDLKEVMVLNATESFVYEPKEQKKMFHATVATENEVFRVKVFNIDLKEKFTPKKIIAIANYVCRNGFLEVYPFTLVADVNADRNMEIPKGLIRSASVTPKINQLCSQTKGSFVNGVFEVHKKNVRGEFTYYEIQDNTGKMEVVVHGRLTTINCEEGDKLKLTCFELAPKSGNTGELRSVIHSHIKVIKTRKNKKDILNPDSSMETSPDFFF
B2: PGAM5 (protein)
chain: MAFRQALQLAACGLAGGSAAVLFSAVAVGKPRAGGDAEPRPAEPPAWAGGARPGPGVWDPNWDRREPLSLINVRKRNVESGEEELASKLDHYKAKATRHIFLIRHSQYHVDGSLEKDRTLTPLGREQAELTGLRLASLGLKFNKIVHSSMTRAIETTDIISRHLPGVCKVSTDLLREGAPIEPDPPVSHWKPEAVQYYEDGARIEAAFRNYIHRADARQEEDSYEIFICHANVIRYIVCRALQFPPEGWLRLSLNNGSITHLVIRPNGRVALRTLGDTGFMPPDKITRS
B3: RCN1 (protein)
chain: KPTVRKERVVRPDSELGERPPEDNQSFQYDHEAFLGKEDSKTFDQLTPDESKERLGKIVDRIDNDGDGFVTTEELKTWIKRVQKRYIFDNVAKVWKDYDRDKDDKISWEEYKQATYGYYLGNPAEFHDSSDHHTFKKMLPRDERRFKAADLNGDLTATREEFTAFLHPEEFEHMKEIVVLETLEDIDKNGDGFVDQDEYIADMFSHEENGPEPDWVLSEREQFNEFRDLNKDGKLDKDEIRHWILPQDYDHAQAEARHLVYESDKNKDEKLTKEEILENWNMFVGSQATNYGEDLTKNHDEL
B4: PSMC2 (protein)
chain: PDYLGADQRKTKEDEKDDKPIRALDEGDIALLKTYGQSTYSRQIKQVEDDIQQLLKKINELTGIKESDTGLAPPALWDLAADKQTLQSEQPLQVARCTKIINADSEDPKYIINVKQFAKFVVDLSDQVAPTDIEEGMRVGVDRNKYQIHIPLPPKIDPTVTMMQVEEKPDVTYSDVGGCKEQIEKLREVVETPLLHPERFVNLGIEPPKGVLLFGPPGTGKTLCARAVANRTDACFIRVIGSELVQKYVGEGARMVRELFEMARTKKACLIFFDEIDAIGGARFDDGAGGDNEVQRTMLELINQLDGFDPRGNIKVLMATNRPDTLDPALMRPGRLDRKIEFSLPDLEGRTHIFKIHARSMSVERDIRFELLARLCPNSTGAEIRSVCTEAGMFAIRARRKIATEKDFLEAVNKVIKSYAKFSATPRYMTYN

target: T1, B3GNT2; assay: Co-IP of FLAG-tagged B3GNT2 followed by mass spectrometry; assay type: cell-based; design: C-term IgG / C-term flag: unit not given here; conditions: Co-IP with FLAG antibody, C-terminally FLAG-tagged B3GNT2; mass spectrometry count, unit not given
Outline: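 FLAG-tagged B3GNT2 immunoprecipitated from cell lysate (HEPES, 1% Triton X-100, 150 mM NaCl) with anti-FLAG versus […], overnight at 4° C, then captured on Protein A/G magnetic beads for 4 h. Two biological replicates per condition. Peptides fractionated and analyzed by nano-LC on an Orbitrap Elite in data-dependent mode.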

Row | Molecule | C-term flag
1 | B1 | 2
2 | B2 | 5
3 | B3 | 9
4 | B4 | 0

same assay, conditions: Co-IP with FLAG antibody, N-terminally FLAG-tagged B3GNT2; mass spectrometry count, unit not given

Row | Molecule | N-term FLAG
5 | B1 | 0
6 | B2 | 4
7 | B3 | 0
8 | B4 | 2

same assay, conditions: Co-IP with IgG control antibody, C-terminally FLAG-tagged B3GNT2; mass spectrometry count, unit not given

Row | Molecule | C-term IgG
9 | B1 | 0
10 | B2 | 0
11 | B3 | 0
12 | B4 | 0

same assay, conditions: Co-IP with IgG control antibody, N-terminally FLAG-tagged B3GNT2; mass spectrometry count, unit not given

Row | Molecule | N-term IgG
13 | B1 | 0
14 | B2 | 0
15 | B3 | 0
16 | B4 | 0

Reference: US20240261333A1, “NOVEL TARGETS FOR ENHANCING ANTI-TUMOR IMMUNITY” (THE BROAD INSTITUTE, INC., priority 2021, published 2024)
